Consider eleven variants from paper PMC11746154.

B1: LexA-Rec102 [S. cerevisiae] / Gal4AD-Spo11 [S. cerevisiae] (parent)
chain 1: MALEGLRKKYKTRQELVKALTPKRRSIHLNSNGHSNGTPCSNADVLAHIKHFLSLAANSLEQHQQPISIVFQNKKKKGDTSSPDIHTTLDFPLNGPHLCTHQFKLKRCAILLNLLKVVMEKLPLGKNTTVRDIFYSNVELFQRQANVVQWLDVIRFNFKLSPRKSLNIIPAQKGLVYSPFPIDIYDNILTCENEPKMQKQTIFPGKPCLIPFFQDDAVIKLGTTSMCNIVIVEKEAVFTKLVNNYHKLSTNTMLITGKGFPDFLTRLFLKKLEQYCSKLISDCSIFTDADPYGISIALNYTHSNERNAYICTMANYKGIRITQVLAQNNEVHNKSIQLLSLNQRDYSLAKNLIASLTANSWDIATSPLKNVIIECQREIFFQKKAEMNEIDARIFEYK
chain 2: MARDITFLTVFLESCGAVNNDEAGKLLSAWTSTVRIEGPESTDSNSLYIPLLPPGMLKIKLNFKMNDRLVTEEQELFTKLREIVGSSIRFWEEQLFYQVQDVSTIENHVILSLKCTILTDAQISTFISKPRELHTHAKGYPEIYYLSELSTTVNFFSKEGNYVEISQVIPHFNEYFSSLIVSQLEFEYPMVFSMISRLRLKWQQSSLAPISYALTSNSVLLPIMLNMIAQDKSSTTAYQILCRRRGPPIQNFQIFSLPAVTYNK
B2: Rec104-LexA [S. cerevisiae] / Gal4AD-Spo11 [S. cerevisiae] (parent)
chain 1: B1 chain 1
chain 2: MSIEEEDTNKITCTQDFLHQYFVTERVSIQFGLNNKTVKRINKDEFDKAVNCIMSWTNYPKPGLKRTASTYLLSNSFKKSATVSLPFILGDPVCMPKRVESNNNDTCLLYSDTLYDDPLIQRNDQAGDEIEDEFSFTLLRSEVNEIRPISSSSTAQILQSDYSALMYERQASNGSIFQFSSP

One experiment covers variants of B1. Kind of experiment: Y2H quantitative β-galactosidase assay. The conditions noted are these: with Gal4AD-Spo11 [S. cerevisiae]; parent: 1; read off a plot.
Regarding chain 2 MARDITFLTVFLESCGAVNNDEAGKLLSAWTSTVRIEGPESTDSNSLYIPLLPPGMLKIKLNFKMNDRLVTEEQELFTKLREIVGSSIRFWEEQLFYQVQDVSTIENHVILSLKCTILTDAQISTFISKPRELHTHAKGYPEIYYLSELSTTVNFFSKEGNYVEISQVIPHFNEYFSSLIVSQLEFEYPMVFSMISRLRLKWQQSSLAPISYALTSNSVLLPIMLNMIAQDKSSTTAYQILCRRRGPPAQNFQIFSLPAVTYNK [chain 2 I249A], the response (normalized β-gal units) turned out to be 0.9.

As to chain 2 MARDITFLTVFLESCGAVNNDEAGKLLSAWTSTVRIEGPESTDSNSLYIPLLPPGMLKIKLNFKMNDRLVTEEQELFTKLREIVGSSIRFWEEQLFYQVQDVSTIENHVILSLKCTILTDAQISTFISKPRELHTHAKGYPEIYYLSELSTTVNFFSKEGNYVEISQVIPHFNEYFSSLIVSQLEFEYPMVFSMISRARLKWQQSSLAPISYALTSNSVLLPIMLNMIAQDKSSTTAYQILCRRRGPPIQNFQIFSLPAVTYNK [chain 2 L198A], the response (normalized β-gal units) worked out at 0.15. The same measure, in the same setting: then chain 2 MARDITFLTVFLESCGAVNNDEAGKLLSAWTSTVRIEGPESTDSNSLYIPLLPPGMLKIKLNFKMNDRLVTEEQELFTKLREIVGSSIRFWEEQLFYQVQDVSTIENHVILSLKCTILTDAQISTFISKPRELHTHAKGYPEIYYLSELSTTVNFFSKEGNYVEISQVIPHFNEYFSSLIVSQLEFEYPMVFSMASRLRLKWQQSSLAPISYALTSNSVLLPIMLNMIAQDKSSTTAYQILCRRRGPPIQNFQIFSLPAVTYNK [chain 2 I195A], with 0.2.

Variants of B2 are the subject of another experiment. The experiment is described as follows: Y2H β-galactosidase assay. The conditions noted are these: with Gal4AD-Spo11 [S. cerevisiae]; parent: 1; read off a plot.
As to chain 2 MSIEEEDTNKITCTQDFLHAYFVTERVSIQFGLNNKTVKRINKDEFDKAVNCIMSWTNYPKPGLKRTASTYLLSNSFKKSATVSLPFILGDPVCMPKRVESNNNDTCLLYSDTLYDDPLIQRNDQAGDEIEDEFSFTLLRSEVNEIRPISSSSTAQILQSDYSALMYERQASNGSIFQFSSP, the response (normalized β-gal units) was 0.75. Same read-out and setting: then chain 2 MSIEEEDTNKITCTQDFLHQAFVTERVSIQFGLNNKTVKRINKDEFDKAVNCIMSWTNYPKPGLKRTASTYLLSNSFKKSATVSLPFILGDPVCMPKRVESNNNDTCLLYSDTLYDDPLIQRNDQAGDEIEDEFSFTLLRSEVNEIRPISSSSTAQILQSDYSALMYERQASNGSIFQFSSP, with 0.02; and chain 2 MSIEEEDTNKITCTQRFLHQYFVTERVSIQFGLNNKTVKRINKDEFDKAVNCIMSWTNYPKPGLKRTASTYLLSNSFKKSATVSLPFILGDPVCMPKRVESNNNDTCLLYSDTLYDDPLIQRNDQAGDEIEDEFSFTLLRSEVNEIRPISSSSTAQILQSDYSALMYERQASNGSIFQFSSP, with 0.53. For the variant chain 2 MSIEEEDTNKITCTQAFLHQYFVTERVSIQFGLNNKTVKRINKDEFDKAVNCIMSWTNYPKPGLKRTASTYLLSNSFKKSATVSLPFILGDPVCMPKRVESNNNDTCLLYSDTLYDDPLIQRNDQAGDEIEDEFSFTLLRSEVNEIRPISSSSTAQILQSDYSALMYERQASNGSIFQFSSP, the response (normalized β-gal units) came out at 1.1. As for chain 2 MSIEEEDTNKITCTQDFLHQYAVTERVSIQFGLNNKTVKRINKDEFDKAVNCIMSWTNYPKPGLKRTASTYLLSNSFKKSATVSLPFILGDPVCMPKRVESNNNDTCLLYSDTLYDDPLIQRNDQAGDEIEDEFSFTLLRSEVNEIRPISSSSTAQILQSDYSALMYERQASNGSIFQFSSP, the response (normalized β-gal units) is 0.93.

Staying with this experiment, now noted: with Rec104-LexA [S. cerevisiae]; parent: 1; read off a plot.
Turning to chain 1 MALEGLRAKYKTRQELVKALTPKRRSIHLNSNGHSNGTPCSNADVLAHIKHFLSLAANSLEQHQQPISIVFQNKKKKGDTSSPDIHTTLDFPLNGPHLCTHQFKLKRCAILLNLLKVVMEKLPLGKNTTVRDIFYSNVELFQRQANVVQWLDVIRFNFKLSPRKSLNIIPAQKGLVYSPFPIDIYDNILTCENEPKMQKQTIFPGKPCLIPFFQDDAVIKLGTTSMCNIVIVEKEAVFTKLVNNYHKLSTNTMLITGKGFPDFLTRLFLKKLEQYCSKLISDCSIFTDADPYGISIALNYTHSNERNAYICTMANYKGIRITQVLAQNNEVHNKSIQLLSLNQRDYSLAKNLIASLTANSWDIATSPLKNVIIECQREIFFQKKAEMNEIDARIFEYK [chain 1 K8A], the response (normalized β-gal units) was determined as 0.72.

With chain 1 MALEGLDKKYKTRQELVKALTPKRRSIHLNSNGHSNGTPCSNADVLAHIKHFLSLAANSLEQHQQPISIVFQNKKKKGDTSSPDIHTTLDFPLNGPHLCTHQFKLKRCAILLNLLKVVMEKLPLGKNTTVRDIFYSNVELFQRQANVVQWLDVIRFNFKLSPRKSLNIIPAQKGLVYSPFPIDIYDNILTCENEPKMQKQTIFPGKPCLIPFFQDDAVIKLGTTSMCNIVIVEKEAVFTKLVNNYHKLSTNTMLITGKGFPDFLTRLFLKKLEQYCSKLISDCSIFTDADPYGISIALNYTHSNERNAYICTMANYKGIRITQVLAQNNEVHNKSIQLLSLNQRDYSLAKNLIASLTANSWDIATSPLKNVIIECQREIFFQKKAEMNEIDARIFEYK [chain 1 R7D], the response (normalized β-gal units) came to 0.24.

For chain 1 MALEGLAKKYKTRQELVKALTPKRRSIHLNSNGHSNGTPCSNADVLAHIKHFLSLAANSLEQHQQPISIVFQNKKKKGDTSSPDIHTTLDFPLNGPHLCTHQFKLKRCAILLNLLKVVMEKLPLGKNTTVRDIFYSNVELFQRQANVVQWLDVIRFNFKLSPRKSLNIIPAQKGLVYSPFPIDIYDNILTCENEPKMQKQTIFPGKPCLIPFFQDDAVIKLGTTSMCNIVIVEKEAVFTKLVNNYHKLSTNTMLITGKGFPDFLTRLFLKKLEQYCSKLISDCSIFTDADPYGISIALNYTHSNERNAYICTMANYKGIRITQVLAQNNEVHNKSIQLLSLNQRDYSLAKNLIASLTANSWDIATSPLKNVIIECQREIFFQKKAEMNEIDARIFEYK [chain 1 R7A], the response (normalized β-gal units) turned out to be 0.85.
